Results published in patent publication US20210332123A1 (SUZHOU KANOVA BIOPHARMACEUTICAL, published 2021).

Tests used:
mouse IL-25 = target: T1, mouse IL-25 (mouse, UniProt Q8VHH8 17-169, limits assumed); assay: ELISA, plate coated with mouse IL-25, OD450, Example 7; unit from the axis lg(nM) [panel Mouse IL-25]
T1 construct: In-house production
T1 sequence (looked up): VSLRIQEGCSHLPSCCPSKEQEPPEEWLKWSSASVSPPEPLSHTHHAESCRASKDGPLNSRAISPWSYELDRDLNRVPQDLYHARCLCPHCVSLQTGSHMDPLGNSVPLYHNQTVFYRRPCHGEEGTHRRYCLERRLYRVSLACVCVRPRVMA

human IL-25 [1] = target: T2, human IL-25 (human, UniProt Q9H293 33-177); assay: ELISA, plate coated with human IL-25 (hIl25-HIS), OD450, Example 4; unit from the axis lg(nM) and paragraph 95
T2 construct: ELISA used bought R&D systems #1258-IL-025/CF; Treated as one molecule; also called IL-17E; human IL-17E
T2 sequence (looked up): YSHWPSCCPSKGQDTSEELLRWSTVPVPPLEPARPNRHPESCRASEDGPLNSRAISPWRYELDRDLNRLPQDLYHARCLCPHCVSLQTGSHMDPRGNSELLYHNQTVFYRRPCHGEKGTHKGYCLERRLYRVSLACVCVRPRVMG
Procedure: MaxiSorp 96-well plates (NUNC #449824, www.thermofisher.com) were coated with 2 μg/ml human IL-25 (R&D systems #1258-IL-025/CF) in 1×PBS (50 μl/well). Plates were incubated at 4° C. overnight. Coating solution was removed and plates were washed once with 200 μl/well PBST (1×PBS with 0.05% tween-20). Then 200 μl/well blocking buffer (1×PBS with 0.05% tween-20, 3% BSA) were added and incubated at room temperature for 1 hour. Blocking buffer was removed and plates were washed three times with 200 μl/well PBST (1×PBS with 0.05% tween-20). Anti-IL-25 antibodies (produced in Example 2) were diluted to 10, 3.33, 1.11, 0.37, 0.123, 0.041, 0.0137, 0.0046, 0.0015, 0.00031, 0.000102, 0.000034 μg/ml by 1×PBS and added to plates (50 μl/well). Plates were incubated at room temperature for 2 hours. Antibodies in the wells were removed and plates were washed three times with 200 μl/well PBST (1×PBS with 0.05% tween-20). Goat anti-human IgG (H&L)-HRP secondary antibody (Jackson Immuno Research #109-035-088, www.jacksonimmuno.com) was diluted 1:5000 in 1×PBS and added to each well (50 μl/well). Plates were incubated at room temperature for 1 hour. Secondary antibody was removed and plates were washed seven times with 200 μl/well PBST (1×PBS with 0.05% tween-20) each time. 50 μl/well TMB (eBioscience #85-00-4201-56, www.ebioscience.com) was added and plates were incubated at room temperature for several minutes. Then 50 μl/well 2N H₂SO₄ was added to stop the reaction. Optical density was measured at 450 nm in relation to human IL-25 binding.

human IL-25 [2] = target: T2, human IL-25; assay: cell-based or functional assay

EC50 (mouse IL-25): 0.215 nM
EC50 (human IL-25 [1]): 0.208 nM
IC50, CXCL1/GROalpha production of HT-29 cells stimulated by human IL-25 [B] (human IL-25 [2]): 11.4 nM
B1: VH1-2-VL2-1 (antibody, V domains shown)
VH: QVTLKESGPTLLKPTQTLTLTCTFSGFSLSTSGMGLGWIRQPPGKALEWLAHIWWDDVKHYKPALKSRLTITKDTSKNQVVLTITNVDPVDTATYYCARMGQLHYYGYDYAMDYWGQGTLVTVSS
VL: DIQLTQSPSFLSASVGDRVTITCSASSSVSYMYWYQQKPGKAPKPLIYRTSNLASGVPSRFSGSGSGTEYTLTISSMQPEDFATYYCQLYHSYPPTWTFGQGTKLEIK
notes: also called antibody formed by VH1-2 and VL2-1; copies: 2 + 2
